According to PMC12168090:

Target: NSP5, rotavirus RV Strain A RF, N-terminally Strep-tagged, full length (group A rotavirus, strain RF (RV Strain A RF))
Experiment: native MS; full-length NSP5 in 200 mM ammonium acetate pH 6.9, 20 μM monomer; Q-Exactive UHMR, nESI

In the case of “NSP5, rotavirus RV Strain A RF, N-terminally Strep-tagged, full length (natural protein)”, the stoichiometry N was 10.
